We go through five molecules from patent US20050054023A1 (BOARD OF SUPERVISORS OF LOUISIANA STATE UNIVERSITY AND …, published 2005).

For this assay, the target named is extracellular signal-regulated protein kinase 2 (purified, recombinant, activated ERK2). The experiment in a line: cell-based or functional assay.
Chain of extracellular signal-regulated protein kinase 2 (purified, recombinant, activated ERK2) (P28482 2-360): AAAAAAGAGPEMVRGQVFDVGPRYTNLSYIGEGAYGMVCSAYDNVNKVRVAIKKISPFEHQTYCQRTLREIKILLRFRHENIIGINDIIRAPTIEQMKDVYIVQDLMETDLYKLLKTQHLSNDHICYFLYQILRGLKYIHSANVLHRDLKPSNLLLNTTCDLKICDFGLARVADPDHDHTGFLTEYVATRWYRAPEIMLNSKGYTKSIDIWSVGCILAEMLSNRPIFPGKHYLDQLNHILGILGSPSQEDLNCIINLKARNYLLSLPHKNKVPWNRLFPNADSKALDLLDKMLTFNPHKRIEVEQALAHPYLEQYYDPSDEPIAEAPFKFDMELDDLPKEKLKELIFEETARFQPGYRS
KQAEAVTSPR [rat TH-Ser31 peptide KQAEAVTSPR]: the V/K came out at 5.

As for YQAEAIMSPRFIGRRQ [type 1 human TH-Ser31 peptide YQAEAIMSPRFIGRRQ], the V/K is 80.

For APRTPGGR [MBPtide (Thr97) …], the V/K came to 23.

For ATGPLSPFGRR [ERKtide], the V/K was found to be 136.

Turning to EAIMSPRFK [type 1 human TH-Ser31 peptide EAIMSPRFK], the V/K was 28.
